Data reported in patent publication US20160367623A1, “AGONISTS OF GUANYLATE CYCLASE USEFUL FOR THE TREATMENT OF GASTROINTESTINAL DISORDERS, INFLAMMATION, CANCER AND OTHER DISORDERS” (priority 2015, published 2016).
Bridge positions count the residues as written; N and C are the ends. Ends that are not written are not given here.

System: patients with chronic idiopathic constipation (CIC)
Assay: Second phase 3 CIC trial: treatment emergent adverse events, safety

Asn^1-Asp^2-Glu^3-Cys^4-Glu^5-Leu^6-Cys^7-Val^8-Asn^9-Val^10-Ala^11-Cys^12-Thr^13-Gly^14-Cys^15-Leu^16 (NDECELCVNVACTGCL; disulfide 4-12, 7-15) [Plecanatide]
Influenza like illness: events E (Active Combined (N = 936)): 1 | Influenza like illness: patients % (Active Combined (N = 936)): (0.1) % | Influenza like illness: patients (%) (Active Combined (N = 936)): (0.1) % | Influenza like illness: patients N (Active Combined (N = 936)): 1 | Influenza: events E (Active Combined (N = 936)): 9 | Influenza: patients % (Active Combined (N = 936)): (1.0) % | Influenza: patients N (Active Combined (N = 936)): 9 | Injury, poisoning and procedural complications (SOC): events E (Active Combined (N = 936)): 19 | Injury, poisoning and procedural complications (SOC): patients % (Active Combined (N = 936)): (1.7) % | Injury, poisoning and procedural complications (SOC): patients N (Active Combined (N = 936)): 16 | Insomnia, events E (Active Combined (N = 936)): 3 | Insomnia, patients (%) (Active Combined (N = 936)): (0.3) % | Insomnia, patients N (Active Combined (N = 936)): 3 | Intervertebral disc disorder, Mild: events E (Active Combined (N = 936)): 0 | Intervertebral disc disorder, Mild: patients N (Active Combined (N = 936)): 0 | Intervertebral disc disorder, Moderate: events E (Active Combined (N = 936)): 0 | Ligament sprain, events E (Active Combined (N = 936)): 2 | Ligament sprain, patients (%) (Active Combined (N = 936)): (0.2) % | Ligament sprain, patients N (Active Combined (N = 936)): 2 | Musculoskeletal and connective tissue disorders [System Organ Class], events E (Active Combined (N = 936)): 19 | Musculoskeletal and connective tissue disorders [System Organ Class], patients (%) (Active Combined (N = 936)): (2.0) % | Musculoskeletal and connective tissue disorders [System Organ Class], patients N (Active Combined (N = 936)): 19 | Musculoskeletal and connective tissue disorders, Mild: events E (Active Combined (N = 936)): 10 | Musculoskeletal and connective tissue disorders, Mild: patients (%) (Active Combined (N = 936)): (1.1) % | Musculoskeletal and connective tissue disorders, Mild: patients N (Active Combined (N = 936)): 10 | Musculoskeletal and connective tissue disorders, Moderate: events E (Active Combined (N = 936)): 9 | Musculoskeletal and connective tissue disorders, Moderate: patients (%) (Active Combined (N = 936)): (1.0) % | Musculoskeletal and connective tissue disorders, Moderate: patients N (Active Combined (N = 936)): 9 | Musculoskeletal and connective tissue disorders, Severe: events E (Active Combined (N = 936)): 0 | Musculoskeletal and connective tissue disorders, Severe: patients N (Active Combined (N = 936)): 0 | Musculoskeletal and connective tissue disorders: events E (Active Combined (N = 936)): 19 | Musculoskeletal and connective tissue disorders: patients (%) (Active Combined (N = 936)): (2.0) % | Musculoskeletal and connective tissue disorders: patients N (Active Combined (N = 936)): 19 | Musculoskeletal chest pain, Mild: events E (Active Combined (N = 936)): 1 | Musculoskeletal chest pain, Mild: patients (%) (Active Combined (N = 936)): (0.1) % | Musculoskeletal chest pain, Mild: patients N (Active Combined (N = 936)): 1 | Musculoskeletal chest pain, Moderate: events E (Active Combined (N = 936)): 0 | Musculoskeletal chest pain, Moderate: patients N (Active Combined (N = 936)): 0 | Musculoskeletal chest pain, Severe: events E (Active Combined (N = 936)): 0 | Musculoskeletal chest pain, Severe: patients N (Active Combined (N = 936)): 0 | Musculoskeletal chest pain: events E (Active Combined (N = 936)): 1 | Musculoskeletal chest pain: patients (%) (Active Combined (N = 936)): (0.1) % | Musculoskeletal chest pain: patients N (Active Combined (N = 936)): 1 | Musculoskeletal pain, Mild: events E (Active Combined (N = 936)): 1 | Musculoskeletal pain, Mild: patients (%) (Active Combined (N = 936)): (0.1) % | Musculoskeletal pain, Mild: patients N (Active Combined (N = 936)): 1 | Musculoskeletal pain, Moderate: events E (Active Combined (N = 936)): 1 | Musculoskeletal pain, Moderate: patients (%) (Active Combined (N = 936)): (0.1) % | Musculoskeletal pain, Moderate: patients N (Active Combined (N = 936)): 1 | Musculoskeletal pain, Severe: events E (Active Combined (N = 936)): 0 | Musculoskeletal pain, Severe: patients N (Active Combined (N = 936)): 0 | Musculoskeletal pain: events E (Active Combined (N = 936)): 2 | Musculoskeletal pain: patients (%) (Active Combined (N = 936)): (0.2) % | Musculoskeletal pain: patients N (Active Combined (N = 936)): 2 | SAE Musculoskeletal and connective tissue disorders, E events (Active Combined (N = 936)): 0 | SAE Musculoskeletal and connective tissue disorders, N patients (Active Combined (N = 936)): 0 | SAE Musculoskeletal and connective tissue disorders, No Reasonable Possibility, E events (Active Combined (N = 936)): 0 | SAE Musculoskeletal and connective tissue disorders, No Reasonable Possibility, N patients (Active Combined (N = 936)): 0 | SAE Musculoskeletal and connective tissue disorders, Reasonable Possibility, E events (Active Combined (N = 936)): 0 | SAE Musculoskeletal and connective tissue disorders, Reasonable Possibility, N patients (Active Combined (N = 936)): 0 | Skeletal injury, events E (Active Combined (N = 936)): 1 | Skeletal injury, patients (%) (Active Combined (N = 936)): (0.1) % | Skeletal injury, patients N (Active Combined (N = 936)): 1 | TE SAE: Musculoskeletal and connective tissue disorders, E events (Active Combined (N = 936)): 0 | TE SAE: Musculoskeletal and connective tissue disorders, N patients (Active Combined (N = 936)): 0 | TEAE Leading to Discontinuation: Infections and infestations, % patients (Active Combined (N = 936)): (0.1) % | TEAE Leading to Discontinuation: Infections and infestations, E events (Active Combined (N = 936)): 1 | TEAE Leading to Discontinuation: Infections and infestations, N patients (Active Combined (N = 936)): 1 | TEAE Leading to Discontinuation: Musculoskeletal and connective tissue disorders, E events (Active Combined (N = 936)): 0 | TEAE Leading to Discontinuation: Musculoskeletal and connective tissue disorders, N patients (Active Combined (N = 936)): 0 | TEAE Leading to Discontinuation: Viral infection, % patients (Active Combined (N = 936)): (0.1) % | TEAE Leading to Discontinuation: Viral infection, E events (Active Combined (N = 936)): 1 | TEAE Leading to Discontinuation: Viral infection, N patients (Active Combined (N = 936)): 1 | Musculoskeletal and connective tissue disorders [System Organ Class], events E (Plecanatide 3 mg (N = 467)): 8 | Musculoskeletal and connective tissue disorders [System Organ Class], patients (%) (Plecanatide 3 mg (N = 467)): (1.7) % | Musculoskeletal and connective tissue disorders [System Organ Class], patients N (Plecanatide 3 mg (N = 467)): 8 | Musculoskeletal and connective tissue disorders, Mild: events E (Plecanatide 3 mg (N = 467)): 4 | Musculoskeletal and connective tissue disorders, Mild: patients (%) (Plecanatide 3 mg (N = 467)): (0.9) % | Musculoskeletal and connective tissue disorders, Mild: patients N (Plecanatide 3 mg (N = 467)): 4 | Musculoskeletal and connective tissue disorders, Moderate: events E (Plecanatide 3 mg (N = 467)): 4 | Musculoskeletal and connective tissue disorders, Moderate: patients (%) (Plecanatide 3 mg (N = 467)): (0.9) % | Musculoskeletal and connective tissue disorders, Moderate: patients N (Plecanatide 3 mg (N = 467)): 4 | Musculoskeletal and connective tissue disorders, Severe: events E (Plecanatide 3 mg (N = 467)): 0 | Musculoskeletal and connective tissue disorders, Severe: patients N (Plecanatide 3 mg (N = 467)): 0 | Musculoskeletal and connective tissue disorders: events E (Plecanatide 3 mg (N = 467)): 8 | Musculoskeletal and connective tissue disorders: patients (%) (Plecanatide 3 mg (N = 467)): (1.7) % | Musculoskeletal and connective tissue disorders: patients N (Plecanatide 3 mg (N = 467)): 8 | Musculoskeletal chest pain, Mild: events E (Plecanatide 3 mg (N = 467)): 1 | Musculoskeletal chest pain, Mild: patients (%) (Plecanatide 3 mg (N = 467)): (0.2) % | Musculoskeletal chest pain, Mild: patients N (Plecanatide 3 mg (N = 467)): 1 | Musculoskeletal chest pain, Moderate: events E (Plecanatide 3 mg (N = 467)): 0 | Musculoskeletal chest pain, Moderate: patients N (Plecanatide 3 mg (N = 467)): 0 | Musculoskeletal chest pain, Severe: events E (Plecanatide 3 mg (N = 467)): 0 | Musculoskeletal chest pain, Severe: patients N (Plecanatide 3 mg (N = 467)): 0 | Musculoskeletal chest pain: events E (Plecanatide 3 mg (N = 467)): 1 | Musculoskeletal chest pain: patients (%) (Plecanatide 3 mg (N = 467)): (0.2) % | Musculoskeletal chest pain: patients N (Plecanatide 3 mg (N = 467)): 1 | Musculoskeletal pain, Mild: events E (Plecanatide 3 mg (N = 467)): 1 | Musculoskeletal pain, Mild: patients (%) (Plecanatide 3 mg (N = 467)): (0.2) % | Musculoskeletal pain, Mild: patients N (Plecanatide 3 mg (N = 467)): 1 | Musculoskeletal pain, Moderate: events E (Plecanatide 3 mg (N = 467)): 0 | Musculoskeletal pain, Moderate: patients N (Plecanatide 3 mg (N = 467)): 0 | Musculoskeletal pain, Severe: events E (Plecanatide 3 mg (N = 467)): 0 | Musculoskeletal pain, Severe: patients N (Plecanatide 3 mg (N = 467)): 0 | Musculoskeletal pain: events E (Plecanatide 3 mg (N = 467)): 1 | Musculoskeletal pain: patients (%) (Plecanatide 3 mg (N = 467)): (0.2) % | Musculoskeletal pain: patients N (Plecanatide 3 mg (N = 467)): 1 | Skeletal injury, events E (Plecanatide 3 mg (N = 467)): 0 | Skeletal injury, patients N (Plecanatide 3 mg (N = 467)): 0 | TE SAE: Musculoskeletal and connective tissue disorders, E events (Plecanatide 3 mg (N = 467)): 0 | TE SAE: Musculoskeletal and connective tissue disorders, N patients (Plecanatide 3 mg (N = 467)): 0 | TEAE Leading to Discontinuation: Musculoskeletal and connective tissue disorders, E events (Plecanatide 3 mg (N = 467)): 0 | TEAE Leading to Discontinuation: Musculoskeletal and connective tissue disorders, N patients (Plecanatide 3 mg (N = 467)): 0 | Musculoskeletal and connective tissue disorders [System Organ Class], events E (Plecanatide 6 mg (N = 469)): 11 | Musculoskeletal and connective tissue disorders [System Organ Class], patients (%) (Plecanatide 6 mg (N = 469)): (2.3) % | Musculoskeletal and connective tissue disorders [System Organ Class], patients N (Plecanatide 6 mg (N = 469)): 11 | Musculoskeletal and connective tissue disorders, Mild: events E (Plecanatide 6 mg (N = 469)): 6 | Musculoskeletal and connective tissue disorders, Mild: patients (%) (Plecanatide 6 mg (N = 469)): (1.3) % | Musculoskeletal and connective tissue disorders, Mild: patients N (Plecanatide 6 mg (N = 469)): 6 | Musculoskeletal and connective tissue disorders, Moderate: events E (Plecanatide 6 mg (N = 469)): 5 | Musculoskeletal and connective tissue disorders, Moderate: patients (%) (Plecanatide 6 mg (N = 469)): (1.1) % | Musculoskeletal and connective tissue disorders, Moderate: patients N (Plecanatide 6 mg (N = 469)): 5 | Musculoskeletal and connective tissue disorders, Severe: events E (Plecanatide 6 mg (N = 469)): 0 | Musculoskeletal and connective tissue disorders, Severe: patients N (Plecanatide 6 mg (N = 469)): 0 | Musculoskeletal and connective tissue disorders: events E (Plecanatide 6 mg (N = 469)): 11 | Musculoskeletal and connective tissue disorders: patients (%) (Plecanatide 6 mg (N = 469)): (2.3) % | Musculoskeletal and connective tissue disorders: patients N (Plecanatide 6 mg (N = 469)): 11 | Musculoskeletal chest pain, Mild: events E (Plecanatide 6 mg (N = 469)): 0 | Musculoskeletal chest pain, Mild: patients N (Plecanatide 6 mg (N = 469)): 0 | Musculoskeletal chest pain, Moderate: events E (Plecanatide 6 mg (N = 469)): 0 | Musculoskeletal chest pain, Moderate: patients N (Plecanatide 6 mg (N = 469)): 0 | Musculoskeletal chest pain, Severe: events E (Plecanatide 6 mg (N = 469)): 0 | Musculoskeletal chest pain, Severe: patients N (Plecanatide 6 mg (N = 469)): 0 | Musculoskeletal chest pain: events E (Plecanatide 6 mg (N = 469)): 0 | Musculoskeletal chest pain: patients N (Plecanatide 6 mg (N = 469)): 0 | Musculoskeletal pain, Mild: events E (Plecanatide 6 mg (N = 469)): 0 | Musculoskeletal pain, Mild: patients N (Plecanatide 6 mg (N = 469)): 0 | Musculoskeletal pain, Moderate: events E (Plecanatide 6 mg (N = 469)): 1 | Musculoskeletal pain, Moderate: patients (%) (Plecanatide 6 mg (N = 469)): (0.2) % | Musculoskeletal pain, Moderate: patients N (Plecanatide 6 mg (N = 469)): 1 | Musculoskeletal pain, Severe: events E (Plecanatide 6 mg (N = 469)): 0 | Musculoskeletal pain, Severe: patients N (Plecanatide 6 mg (N = 469)): 0 | Musculoskeletal pain: events E (Plecanatide 6 mg (N = 469)): 1 | Musculoskeletal pain: patients (%) (Plecanatide 6 mg (N = 469)): (0.2) % | Musculoskeletal pain: patients N (Plecanatide 6 mg (N = 469)): 1 | Skeletal injury, events E (Plecanatide 6 mg (N = 469)): 1 | Skeletal injury, patients (%) (Plecanatide 6 mg (N = 469)): (0.2) % | Skeletal injury, patients N (Plecanatide 6 mg (N = 469)): 1 | TE SAE: Musculoskeletal and connective tissue disorders, E events (Plecanatide 6 mg (N = 469)): 0 | TE SAE: Musculoskeletal and connective tissue disorders, N patients (Plecanatide 6 mg (N = 469)): 0 | TEAE Leading to Discontinuation: Musculoskeletal and connective tissue disorders, E events (Plecanatide 6 mg (N = 469)): 0 | TEAE Leading to Discontinuation: Musculoskeletal and connective tissue disorders, N patients (Plecanatide 6 mg (N = 469)): 0
